Columns and labels:
Assay in all cases: SPR; BIAcore 3000, 25 °C; PD-L1-Ig or PD-L2-Ig immobilized on CM5 chip by amine coupling; soluble monomeric PD-1 or mutants (0.01–100 μM) injected at 20 μl/min; equilibrium Kd, 1:1 Langmuir model
Settings in all cases: both partners purified
[1] = biological target: T1, mouse PD-L2 Ig fusion protein (mouse, UniProt Q9WUL5 20-221)
T1 construct: mouse PD-L2 part of a bought Ig fusion protein; also called mPD-L2; murine PD-L2-Ig; source: bought: R&D Systems
T1 sequence (looked up): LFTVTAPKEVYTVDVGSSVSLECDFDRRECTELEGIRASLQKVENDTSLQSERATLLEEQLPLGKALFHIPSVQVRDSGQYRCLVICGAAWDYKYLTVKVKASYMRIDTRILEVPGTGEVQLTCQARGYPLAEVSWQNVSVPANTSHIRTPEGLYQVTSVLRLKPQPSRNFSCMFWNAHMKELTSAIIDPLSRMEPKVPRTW

[2] = biological target: T2, human PD-L1 Ig fusion protein (human, UniProt Q9NZQ7 19-238)
T2 construct: characterized by SEC prior to use; detected on cells with anti-human IgG Fcγ-specific F(ab')2; also called huPD-L1; B7-H1; source: bought: R&D Systems

[3] = biological target: T3, mouse PD-L1 Ig fusion protein (mouse, UniProt Q9EP73 19-239)
T3 construct: mouse PD-L1 part of a bought Ig fusion protein; also called mPD-L1; murine PD-L1-Ig; source: bought: R&D Systems

[4] = biological target: T4, human PD-L2 Ig fusion protein (human, UniProt Q9BQ51 20-220)
T4 construct: characterized by SEC prior to use; also called huPD-L2; B7-DC; source: bought: R&D Systems
T4 sequence (looked up): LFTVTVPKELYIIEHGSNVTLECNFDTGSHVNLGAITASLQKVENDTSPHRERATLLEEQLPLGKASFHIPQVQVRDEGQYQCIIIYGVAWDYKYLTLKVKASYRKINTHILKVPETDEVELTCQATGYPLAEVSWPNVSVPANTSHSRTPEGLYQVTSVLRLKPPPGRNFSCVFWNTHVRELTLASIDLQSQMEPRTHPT

T3 sequence (Q9EP73 19-239): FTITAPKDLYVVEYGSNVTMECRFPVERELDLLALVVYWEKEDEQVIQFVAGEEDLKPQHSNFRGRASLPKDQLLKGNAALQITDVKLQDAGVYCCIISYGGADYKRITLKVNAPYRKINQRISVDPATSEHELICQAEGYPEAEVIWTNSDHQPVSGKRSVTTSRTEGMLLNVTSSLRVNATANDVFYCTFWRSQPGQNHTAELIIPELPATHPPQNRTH
T2 sequence (Q9NZQ7 19-238): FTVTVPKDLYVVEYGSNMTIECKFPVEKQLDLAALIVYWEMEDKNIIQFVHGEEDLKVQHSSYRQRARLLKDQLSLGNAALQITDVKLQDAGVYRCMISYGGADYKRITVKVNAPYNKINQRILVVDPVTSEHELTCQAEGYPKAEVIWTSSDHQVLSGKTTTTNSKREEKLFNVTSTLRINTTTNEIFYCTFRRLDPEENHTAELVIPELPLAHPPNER

B1: mouse PD-1 A132L mutant (soluble, monomeric) (domain or fragment)
chain: SLTFYPAWLTVSEGANATFTCSLSNWSEDLMLNWNRLSPSNQTEKQAAFCNGLSQPVQDARFQIIQLPNRHDFHMNILDTRRNDSGIYLCGAISLHPKLKIEESPGAELVVTERILE
notes: the same molecule is used for the SPR analyte and for the crystallised complexes (PDB 3SBW, 3RNK, 3BP6); also called mA132L; mouse analog of A132L
- Kd [1]: 470 nM
- Kd [2]: 480 nM
- Kd [3]: 2780 nM
- Kd [4]: 1180 nM

From PMC5360572 (EBioMedicine, 2017)
